According to patent US12139520B2 (priority 2020, dated 2024):
Numbered stars: 1 amine (or outer) side, 2 acyl side, 3 side chain; on linkers, the order of the positions; unused ones are H or OH. Bridge positions count the residues as written; N and C are the ends. Square brackets hold non-standard residues; d marks the D form. Side chains are listed from the residue outwards. Ends that are not written are not given here. * marks the point of attachment. C20 diacid = O=C(O)CCCCCCCCCCCCCCCCCCC(=O)*; γGlu = O=C(O)[C@H](CCC(=O)[*:2])N[*:1]; Hyp = O=C(O)[C@@H]1C[C@@H](O)CN1; Trx = NC[C@H]1CC[C@H](C(=O)O)CC1; AEEA = NCCOCCOCC(=O)O; Aib = CC(C)(N)C(=O)O

T1: hAMY3R (human, UniProt P30988)
T1 sequence 1: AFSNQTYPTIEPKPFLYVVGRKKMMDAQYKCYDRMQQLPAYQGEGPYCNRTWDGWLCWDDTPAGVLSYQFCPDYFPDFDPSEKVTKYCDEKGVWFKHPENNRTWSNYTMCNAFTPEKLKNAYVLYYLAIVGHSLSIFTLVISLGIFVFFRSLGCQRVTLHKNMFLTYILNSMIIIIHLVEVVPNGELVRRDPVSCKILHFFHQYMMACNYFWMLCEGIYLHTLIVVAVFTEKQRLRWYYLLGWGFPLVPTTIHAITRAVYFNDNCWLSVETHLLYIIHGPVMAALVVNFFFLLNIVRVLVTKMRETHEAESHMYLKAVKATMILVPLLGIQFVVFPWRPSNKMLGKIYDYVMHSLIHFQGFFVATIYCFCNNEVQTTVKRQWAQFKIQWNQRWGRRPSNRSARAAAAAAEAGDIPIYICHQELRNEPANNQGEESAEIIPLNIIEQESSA
T1 sequence 2: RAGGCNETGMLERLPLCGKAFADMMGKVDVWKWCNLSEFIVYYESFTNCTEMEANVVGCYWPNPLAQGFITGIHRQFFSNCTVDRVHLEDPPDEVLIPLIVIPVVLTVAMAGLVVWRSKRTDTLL


Molecular target: T1, hAMY3R
Assay: cell-based or functional assay

hAMY3R EC50 (cAMP) [nM]	Binder
0.024	GCRFGTCTVQRLAHFLYQFTDKDKDNVAPRTKVGSNGY [SEQ ID NO: 117]
0.022	KCNTATCTVQRLAHQIYQATDKDKDNVAPPTNVGSNG[Hyp]-NH2 (disulfide 2-7 (inferred); ends not checked) [SEQ ID NO: 114]
0.018	{C20 diacid-γGlu}-KCNTATCTVQRLAEQIYQFTAKDKDNVAPPTNVGSNG[Hyp]-NH2 (disulfide 2-7 (inferred); ends not checked) [SEQ ID NO: 106]
0.023	GCRTGTCTVQRLAHQIYQFTDKDKDNVAPRTKIGPNG[Hyp]-NH2 (disulfide 2-7 (inferred); ends not checked) [SEQ ID NO: 115]
0.032	GCRFGTCTVQRLAHQIYQFTDKDKDNVAPRTKVSPNG[Hyp]-NH2 (disulfide 2-7 (inferred); ends not checked) [SEQ ID NO: 134]
0.027	GCRFGTCTVQRLAHFLYQFTDKDGAIAPRTKIGSQGY [SEQ ID NO: 123]
0.007	KCNTATCTVQRLAEQIYQFTDKDKDNK([AEEA-AEEA-γGlu-C20 diacid])APPTNVGSNG[Hyp]-NH2 (disulfide 2-7 (inferred); ends not checked) [SEQ ID NO: 12]
0.02	GCRTGTCTVQRLAHQIYQFTDKDKDNVAPRTNVGPQGY [SEQ ID NO: 109]
0.029	GCRTGTCTVQRLAHQIYQFTDKDKDNVAPRSKVGPQGY [SEQ ID NO: 129]
0.031	GCRFGTCTVQRLAHQIYQFTDKDKDNVAPRSNVSPQGY [SEQ ID NO: 131]
0.024	GCRFGTCTVQRLAHQIYQFTDKDKDNVAPRTNVSPQGY [SEQ ID NO: 116]
0.018	{C20 diacid-γGlu}-KCNTATCTVQRLAHQIAQFADKDKDNVAPPTNVGSNG[Hyp]-NH2 (disulfide 2-7 (inferred); ends not checked) [SEQ ID NO: 105]
0.027	{C20 diacid-Trx-γGlu-AEEA-AEEA}-KCNTATCTVQRLAEQIYQFTDKDKDNVAPPTNVGSNG[Hyp]-NH2 (disulfide 2-7 (inferred); ends not checked) [SEQ ID NO: 126]
0.019	{C20 diacid-γGlu}-KCNTATCTVQRLAEQIYQFTDKDKANVAPPTNVGSNG[Hyp]-NH2 (disulfide 2-7 (inferred); ends not checked) [SEQ ID NO: 108]
0.031	GCRFGTCTVQRLAHQIYQFTDKDKDNVAPRTKVSPQG[Hyp]-NH2 (disulfide 2-7 (inferred); ends not checked) [SEQ ID NO: 132]
0.022	GCRFGTCTVQRLAHQIYQFTDKDKDNVAPRTKISPNG[Hyp]-NH2 (disulfide 2-7 (inferred); ends not checked) [SEQ ID NO: 113]
0.027	GCRFGTCTVQRLAHQIYQFTDKDKDNVAPRTNVSPQG[Hyp]-NH2 (disulfide 2-7 (inferred); ends not checked) [SEQ ID NO: 125]

hAMY3R EC50 (cAMP) [nM]	Binder
0.02	{C20 diacid-γGlu}-KCNTATCTVQRLAHQIEQFTDKDKDNVAPPTNVGSNG[Hyp]-NH2 (disulfide 2-7 (inferred); ends not checked) [SEQ ID NO: 110]
0.025	{C20 diacid-γGlu}-KCNTATCTVQRLAHQIAQFTDKDKDPVAPPTNVGSNS[Hyp]-NH2 (disulfide 2-7 (inferred); ends not checked) [SEQ ID NO: 120]
0.024	GCRTGTCTVQRLAHQIYQFTDKDKDNVAPRTNIGPQG[Hyp]-NH2 (disulfide 2-7 (inferred); ends not checked) [SEQ ID NO: 118]
0.028	KCNTATCATQRLANFLVHSSNNFGAIAPSTKIGPNGY [SEQ ID NO: 128]
0.03	{C20 diacid-γGlu}-KCNTATCTVDRLAHQIAQFTDKDKDPVAPPTNVGSNG[Hyp]-NH2 (disulfide 2-7 (inferred); ends not checked) [SEQ ID NO: 130]
0.027	GCRFGTCTVQRLAHQIYQFTDKDKDNVAPRTKIGPNG[Hyp]-NH2 (disulfide 2-7 (inferred); ends not checked) [SEQ ID NO: 124]
0.007	{C20 diacid-γGlu}-KCNTATCTVQRLAHQINQFTDKDKDNVAPPTNVGSNG[Hyp]-NH2 (disulfide 2-7 (inferred); ends not checked) [SEQ ID NO: 11]
0.021	{C20 diacid-γGlu}-KCNTATCTVDRLAHQIAQFTDKDKDNVAPPTNVGSNG[Hyp]-NH2 (disulfide 2-7 (inferred); ends not checked) [SEQ ID NO: 112]
0.031	{C20 diacid-γGlu}-KCNTATCTVARLAEQIYQFTDKDKDPVAPPTNVGSNG[Hyp]-NH2 (disulfide 2-7 (inferred); ends not checked) [SEQ ID NO: 133]
0.024	{C20 diacid-γGlu}-KCNT[Aib]TCTVQRLAHQIYQFTDKDKDNVAPPTNVGSNG[Hyp]-NH2 (disulfide 2-7 (inferred); ends not checked) [SEQ ID NO: 119]
0.021	GCRFGTCTVQRLAHQIYQFTDKDKDNVAPRTKIGPQG[Hyp]-NH2 (disulfide 2-7 (inferred); ends not checked) [SEQ ID NO: 111]
0.028	GCRFGTCTVQRLAHQIYQFTDKDKDNVAPRSKIGPQG[Hyp]-NH2 (disulfide 2-7 (inferred); ends not checked) [SEQ ID NO: 127]
0.019	{C20 diacid-γGlu}-KCNTATCTVARLAHQIAQFTDKDKDNVAPPTNVGSNG[Hyp]-NH2 (disulfide 2-7 (inferred); ends not checked) [SEQ ID NO: 107]
0.026	{C20 diacid-γGlu}-KCNTATCTVQRLAEQIYQFTDKAKDNVAPPTNVGSNG[Hyp]-NH2 (disulfide 2-7 (inferred); ends not checked) [SEQ ID NO: 122]
0.026	GCRTGTCTVQRLAHQIYQFTDKDKDNVAPRSNVGPQG[Hyp]-NH2 (disulfide 2-7 (inferred); ends not checked) [SEQ ID NO: 121]
0.007	KCNTATCTVQRLAHAIYQFTDKDKDNVAPPTNVGSNG[Hyp]-NH2 (disulfide 2-7 (inferred); ends not checked) [SEQ ID NO: 13]

Molecular target: hAM1R (human, UniProt Q16602)
Assay: cell-based or functional assay

hAM1R EC50 (cAMP) [nM]	Binder
51.6	GCRFGTCTVQRLAHFLYQFTDKDKDNVAPRTKVGSNGY [SEQ ID NO: 117]
> 5000	KCNTATCTVQRLAHQIYQATDKDKDNVAPPTNVGSNG[Hyp]-NH2 (disulfide 2-7 (inferred); ends not checked) [SEQ ID NO: 114]
> 5000	{C20 diacid-γGlu}-KCNTATCTVQRLAEQIYQFTAKDKDNVAPPTNVGSNG[Hyp]-NH2 (disulfide 2-7 (inferred); ends not checked) [SEQ ID NO: 106]
130	GCRTGTCTVQRLAHQIYQFTDKDKDNVAPRTKIGPNG[Hyp]-NH2 (disulfide 2-7 (inferred); ends not checked) [SEQ ID NO: 115]
2980	GCRFGTCTVQRLAHQIYQFTDKDKDNVAPRTKVSPNG[Hyp]-NH2 (disulfide 2-7 (inferred); ends not checked) [SEQ ID NO: 134]
31.7	GCRFGTCTVQRLAHFLYQFTDKDGAIAPRTKIGSQGY [SEQ ID NO: 123]
> 5000	KCNTATCTVQRLAEQIYQFTDKDKDNK([AEEA-AEEA-γGlu-C20 diacid])APPTNVGSNG[Hyp]-NH2 (disulfide 2-7 (inferred); ends not checked) [SEQ ID NO: 12]
2980	GCRTGTCTVQRLAHQIYQFTDKDKDNVAPRTNVGPQGY [SEQ ID NO: 109]
367	GCRTGTCTVQRLAHQIYQFTDKDKDNVAPRSKVGPQGY [SEQ ID NO: 129]
33.8	GCRFGTCTVQRLAHQIYQFTDKDKDNVAPRSNVSPQGY [SEQ ID NO: 131]
48.2	GCRFGTCTVQRLAHQIYQFTDKDKDNVAPRTNVSPQGY [SEQ ID NO: 116]
> 5000	{C20 diacid-γGlu}-KCNTATCTVQRLAHQIAQFADKDKDNVAPPTNVGSNG[Hyp]-NH2 (disulfide 2-7 (inferred); ends not checked) [SEQ ID NO: 105]
> 5000	{C20 diacid-Trx-γGlu-AEEA-AEEA}-KCNTATCTVQRLAEQIYQFTDKDKDNVAPPTNVGSNG[Hyp]-NH2 (disulfide 2-7 (inferred); ends not checked) [SEQ ID NO: 126]
> 5000	{C20 diacid-γGlu}-KCNTATCTVQRLAEQIYQFTDKDKANVAPPTNVGSNG[Hyp]-NH2 (disulfide 2-7 (inferred); ends not checked) [SEQ ID NO: 108]
2980	GCRFGTCTVQRLAHQIYQFTDKDKDNVAPRTKVSPQG[Hyp]-NH2 (disulfide 2-7 (inferred); ends not checked) [SEQ ID NO: 132]
2980	GCRFGTCTVQRLAHQIYQFTDKDKDNVAPRTKISPNG[Hyp]-NH2 (disulfide 2-7 (inferred); ends not checked) [SEQ ID NO: 113]
2980	GCRFGTCTVQRLAHQIYQFTDKDKDNVAPRTNVSPQG[Hyp]-NH2 (disulfide 2-7 (inferred); ends not checked) [SEQ ID NO: 125]

hAM1R EC50 (cAMP) [nM]	Binder
> 5000	{C20 diacid-γGlu}-KCNTATCTVQRLAHQIEQFTDKDKDNVAPPTNVGSNG[Hyp]-NH2 (disulfide 2-7 (inferred); ends not checked) [SEQ ID NO: 110]
> 5000	{C20 diacid-γGlu}-KCNTATCTVQRLAHQIAQFTDKDKDPVAPPTNVGSNS[Hyp]-NH2 (disulfide 2-7 (inferred); ends not checked) [SEQ ID NO: 120]
2980	GCRTGTCTVQRLAHQIYQFTDKDKDNVAPRTNIGPQG[Hyp]-NH2 (disulfide 2-7 (inferred); ends not checked) [SEQ ID NO: 118]
130	KCNTATCATQRLANFLVHSSNNFGAIAPSTKIGPNGY [SEQ ID NO: 128]
> 5000	{C20 diacid-γGlu}-KCNTATCTVDRLAHQIAQFTDKDKDPVAPPTNVGSNG[Hyp]-NH2 (disulfide 2-7 (inferred); ends not checked) [SEQ ID NO: 130]
34.8	GCRFGTCTVQRLAHQIYQFTDKDKDNVAPRTKIGPNG[Hyp]-NH2 (disulfide 2-7 (inferred); ends not checked) [SEQ ID NO: 124]
> 5000	{C20 diacid-γGlu}-KCNTATCTVQRLAHQINQFTDKDKDNVAPPTNVGSNG[Hyp]-NH2 (disulfide 2-7 (inferred); ends not checked) [SEQ ID NO: 11]
> 5000	{C20 diacid-γGlu}-KCNTATCTVDRLAHQIAQFTDKDKDNVAPPTNVGSNG[Hyp]-NH2 (disulfide 2-7 (inferred); ends not checked) [SEQ ID NO: 112]
> 5000	{C20 diacid-γGlu}-KCNTATCTVARLAEQIYQFTDKDKDPVAPPTNVGSNG[Hyp]-NH2 (disulfide 2-7 (inferred); ends not checked) [SEQ ID NO: 133]
> 5000	{C20 diacid-γGlu}-KCNT[Aib]TCTVQRLAHQIYQFTDKDKDNVAPPTNVGSNG[Hyp]-NH2 (disulfide 2-7 (inferred); ends not checked) [SEQ ID NO: 119]
2980	GCRFGTCTVQRLAHQIYQFTDKDKDNVAPRTKIGPQG[Hyp]-NH2 (disulfide 2-7 (inferred); ends not checked) [SEQ ID NO: 111]
107	GCRFGTCTVQRLAHQIYQFTDKDKDNVAPRSKIGPQG[Hyp]-NH2 (disulfide 2-7 (inferred); ends not checked) [SEQ ID NO: 127]
647	{C20 diacid-γGlu}-KCNTATCTVARLAHQIAQFTDKDKDNVAPPTNVGSNG[Hyp]-NH2 (disulfide 2-7 (inferred); ends not checked) [SEQ ID NO: 107]
> 5000	{C20 diacid-γGlu}-KCNTATCTVQRLAEQIYQFTDKAKDNVAPPTNVGSNG[Hyp]-NH2 (disulfide 2-7 (inferred); ends not checked) [SEQ ID NO: 122]
2980	GCRTGTCTVQRLAHQIYQFTDKDKDNVAPRSNVGPQG[Hyp]-NH2 (disulfide 2-7 (inferred); ends not checked) [SEQ ID NO: 121]
> 5000	KCNTATCTVQRLAHAIYQFTDKDKDNVAPPTNVGSNG[Hyp]-NH2 (disulfide 2-7 (inferred); ends not checked) [SEQ ID NO: 13]
